Consider 2 substances from paper PMC3128127.

“And” between values parts separate entries of the source, which are not always exact repeats. Equal values may be shown once.

For assay [1], the target named is HIV-1 GagPol, protease-inactive (D25A, PR-), from an expression plasmid (HIV-1). In words: incorporation into virus-like particles (fluorescence microscopy of pelleted, filtered particles).
Assay [2] concerns the target HIV-1 (NL4-3) GagPol, wild type, in authentic virions (HIV-1 (NL4-3)). In words: incorporation into virions (quantitative fluorescence-based Western blot, LI-COR). In general terms: In western blotting, separated proteins are transferred to a membrane and probed.

DsRed-clathrin LC, sequence (P09496 whole entry): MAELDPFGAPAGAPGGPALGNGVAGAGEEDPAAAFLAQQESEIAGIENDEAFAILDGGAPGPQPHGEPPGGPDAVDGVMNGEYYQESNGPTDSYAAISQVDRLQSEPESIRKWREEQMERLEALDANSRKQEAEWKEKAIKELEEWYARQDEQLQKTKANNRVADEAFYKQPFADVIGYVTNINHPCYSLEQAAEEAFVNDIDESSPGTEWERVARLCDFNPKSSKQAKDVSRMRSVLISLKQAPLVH

On to “DsRed-clathrin LC (from UniProt P09496 1-248) (natural protein)”, for which, in assay [1], the percent of VLPs labelled with DsRed-clathrin LC was 40%.

For the substance “clathrin heavy chain (from UniProt Q00610 1-1675) (natural protein)”, the percent of the total clathrin HC of the culture present in virions in assay [2] was 6% and 8%.
